Experimental data: patent US10705101B2, “Determination of the unbound free fatty acid profiles in biological and industrial specimens” (priority 2013, dated 2020)
Changes are numbered by the printed parent chain. Names and notes keep the numbering of the source.

Test: Probe response profile / specificity for different FFAu at 1 nM
Format: binding
Conditions: FFAu giving the largest response to 1 nM of each FFAu; several listed in order of degree of specificity
Source text: The abbreviations are: arachidonate (AA), docosahexaenoate (DHA), eicosapentaenoate (EPA), laurate (LAU), linoleate (LA), linolenate (LNA), myristate (MA), oleate (OA), palmitate (PA), palmitoleate (POA), stearate (SA), and vaccenate (VA).
Examples of probes used, generally in groups of 10 or more, to determine FFAu profiles in biological samples such as blood plasma or serum from animals and humans or media from microorganisms are shown in Table 2. In the sequences presented in Table 2 and the sequence listing, amino acids are numbered from the first residue of the mature protein. The initiator methionine residue of the wild-type protein is removed by aminopeptidase activity, leaving an alanine as residue 1. Thus, counting backwards and skipping 0, the initiator methionine is at residue position −1. Specificity indicates the FFAu that gives the largest response to 1 nM of each FFAu when one FFAu dominates the profile and more than one when there is a more even distribution of specificity. Where more than one is indicated they are listed in order of degree of specificity. The abbreviations are: arachidonate (AA), docosahexaenoate (DHA), eicosapentaenoate (EPA), laurate (LAU), linoleate (LA), linolenate (LNA), myristate (MA), oleate (OA), palmitate (PA), palmitoleate (POA), stearate (SA), and vacsinate (VA). The sequences indicate mutations relative to SEQ ID NO: 1. This sequence is a mutated rat intestinal fatty acid binding protein with a Glu 131 to Asp substitution and includes a COOH-terminal affininity tag comprising […], Gly 133 and 6 histidines.
The response profile is the fluorescence change as evaluated as (R−Ro)/Ro (ΔR/Ro) for each FFAu added as a complex of the FFA and albumin so that the FFAu concentration is clamped or buffered at 1 nM for every FFAu for which a calibration has been performed. The calculation is performed simply by rearranging equation 2 to solve for ΔR/Ro. […] However all the probes have different profiles and therefore complementary specificities for different FFAu. Abbreviations are as in Table 2.

B1: L76P9 E4: acrylodan-labeled mutant FABP probe: Y14L, M18Y, I23T, K27L, L30C, G31I, L72G, A73I, D74A, L78V, W82P, G91S, F93M, A104F, R106L, Y117L, Q115A (protein, UniProt P02693 2-132, looked up, variant Y14L M18Y I23T K27L L30C G31I L72G A73I D74A L78V W82P G91S F93M A104F R106L Y117L Q115A)
Fatty acid-binding protein, …: AFDGTWKVDRNENLEKFYEKMGTNVVLRKCIAHDNLKLTITQEGNKFTVKESSNFRNIDVVFELGVDFAYSGIAGTEVTGTPTMEGNKLVSKMKRVDNGKELIFVLEISGNELIATLTYEGVEAKRIFKKE
modifications: acrylodan label
notes: acrylodan-labeled mutant FABP probe: Y14L, M18Y, I23T, K27L, L30C, G31I, L72G, A73I, D74A, L78V, W82P, G91S, F93M, A104F, R106L, Y117L, Q115A
  Specificity: OA/VA/SA/LA

B2: L33P3 F9: acrylodan-labeled mutant FABP probe: M18L, I23L, G31N, L72W, A73T, D74A, R106A, Q115E, Y117V (protein, UniProt P02693 2-132, looked up, variant M18L I23L G31N L72W A73T D74A R106A Q115E Y117V)
Fatty acid-binding protein, …: AFDGTWKVDRNENYEKFLEKMGLNVVKRKLNAHDNLKLTITQEGNKFTVKESSNFRNIDVVFELGVDFAYSWTAGTELTGTWTMEGNKLVGKFKRVDNGKELIAVAEISGNELIETVTYEGVEAKRIFKKE
modifications: acrylodan label
notes: acrylodan-labeled mutant FABP probe: M18L, I23L, G31N, L72W, A73T, D74A, R106A, Q115E, Y117V
  Specificity: DHA/AA

B3: L37P1 C3: acrylodan-labeled mutant FABP probe: Y14W, M18L, M21I, I23L, G31N, L38V, L72W, A73T, D74A, R106A, Q115E, Y117V (protein, UniProt P02693 2-132, looked up, variant Y14W M18L M21I I23L G31N L38V L72W A73T D74A R106A Q115E Y117V)
Fatty acid-binding protein, …: B2 Fatty acid-binding protein, … with Y14W, M21I, L38V
modifications: acrylodan label
notes: acrylodan-labeled mutant FABP probe: Y14W, M18L, M21I, I23L, G31N, L38V, L72W, A73T, D74A, R106A, Q115E, Y117V
  Specificity: AA/DHA/EPA

B4: L44P1 C10: acrylodan-labeled mutant FABP probe: Y14L, M18L, I23L, G31N, L72G, A73T, D74A, R106W, Q115W, Y117L (protein, UniProt P02693 2-132, looked up, variant Y14L M18L I23L G31N L72G A73T D74A R106W Q115W Y117L)
Fatty acid-binding protein, …: B2 Fatty acid-binding protein, … with Y14L, W72G, A106W, E115W, V117L
modifications: acrylodan label
notes: acrylodan-labeled mutant FABP probe: Y14L, M18L, I23L, G31N, L72G, A73T, D74A, R106W, Q115W, Y117L
  Specificity: PA/OA/SA

B5: L35P22E8: acrylodan-labeled mutant FABP probe: M18L, I23L, G31N, L36R, L38V, L72W, A73T, D74A, R106A, Q115E, Y117V (protein, UniProt P02693 2-132, looked up, variant M18L I23L G31N L36R L38V L72W A73T D74A R106A Q115E Y117V)
Fatty acid-binding protein, …: B2 Fatty acid-binding protein, … with L36R, L38V
modifications: acrylodan label
notes: acrylodan-labeled mutant FABP probe: M18L, I23L, G31N, L36R, L38V, L72W, A73T, D74A, R106A, Q115E, Y117V
  Specificity: DHA/AA

B6: L35P10C4: acrylodan-labeled mutant FABP probe: M18L, G31N, L36Y, L72W, A73T, D74A, R106A, Q115E, Y117V (protein, UniProt P02693 2-132, looked up, variant M18L G31N L36Y L72W A73T D74A R106A Q115E Y117V)
Fatty acid-binding protein, …: B2 Fatty acid-binding protein, … with L23I, L36Y
modifications: acrylodan label
notes: acrylodan-labeled mutant FABP probe: M18L, G31N, L36Y, L72W, A73T, D74A, R106A, Q115E, Y117V
  Specificity: DHA/AA

B7: L50BP4 E2: acrylodan-labeled mutant FABP probe: M18L, M21F, I23F, K27C, G31N, L72T, A73T, D74A, T76F (protein, UniProt P02693 2-132, looked up, variant M18L M21F I23F K27C G31N L72T A73T D74A T76F)
Fatty acid-binding protein, …: B2 Fatty acid-binding protein, … with M21F, L23F, K27C, W72T, T76F, A106R, E115Q, V117Y
modifications: acrylodan label
notes: acrylodan-labeled mutant FABP probe: M18L, M21F, I23F, K27C, G31N, L72T, A73T, D74A, T76F
  Specificity: PA/MA
